Source: patent US20170166624A1 (University of Texas, published 2017)
Values joined by “and” are separate entries in the source; they are usually repeats but may differ in a detail not shown here. Equal entries are not always repeated.

T1: TGF-β2 K25R I92V K94R (TGF-β2TM) (UniProt P61812 303-414, K25R; I92V; K94R)
T1 construct: mature
T1 sequence (looked up): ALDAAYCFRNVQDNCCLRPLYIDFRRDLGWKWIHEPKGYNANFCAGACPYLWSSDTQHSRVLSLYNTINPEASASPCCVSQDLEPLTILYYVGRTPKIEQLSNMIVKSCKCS

T2: TGF-β3 (UniProt P10600 301-412)
T2 sequence (looked up): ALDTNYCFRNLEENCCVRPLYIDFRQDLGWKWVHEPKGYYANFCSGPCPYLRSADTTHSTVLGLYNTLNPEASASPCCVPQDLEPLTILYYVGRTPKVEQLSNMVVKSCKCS


Columns and labels:
[1] = target: T1, TGF-β2 K25R I92V K94R (TGF-β2TM); experiment: SDS-PAGE densitometry of the SEC-isolated complex (TGF-β2TM 51.6 pmol)
Excerpt: RII:RIII:TGF-β2TM form a stable non-disassociating 1:1:1 complex in solution. […] The mixture was applied to a Superdex 200 size exclusion chromatography column and the UV absorbance of the column eluate at 280 nm was monitored. […] To determine the stoichiometry of the complex, a sample of the isolated RII:RIII:TGFβ2-TM complex was run on an SDS-PAGE gel along with known amounts of the individual components (FIG. 3d).

[2] = target: T1, TGF-β2 K25R I92V K94R (TGF-β2TM); experiment: SPR, RII injected over immobilized TGF-β2TM with or without 80 nM RIII (competitor RIII)
Experimental: (§1) FIG. 2. RII (R) and RIII (EU) form a 1:1:1 complex with TGF-β homodimers. (a) SPR sensorgrams in which increasing concentrations of RII and RIII were injected over a SPR sensor surface with immobilized TGF-β2TM. Mass normalized sensorgrams are shown in panels on the left. Plots of the mass normalized equilibrium response (Req) as a function of receptor concentration ([Receptor]), along with fits to Req=(Rₘₐₓ×[Receptor])/(Kd+[Receptor]), are shown on the right.
The TGF-β type III receptor potentiates the binding of the TGF-β type II receptor, but reduces its binding stoichiometry to one per TGF-β homodimer. This was shown by performing SPR experiments in which increasing concentrations of RII were injected over immobilized TGF-β2TM in the absence or presence of a saturating concentration of RIII (80 nM) (FIG. 2b).

TGF-β3 = target: T2, TGF-β3; experiment: SPR competition, receptor with 0.8 nM TGF-β3 over immobilized 1D11
Experimental: FIG. 6. SPR competition binding data in which increasing concentrations of RII (R), RIII (EU), and RII-RIII (REU) were pre-incubated with 0.8 nM TGF-β3 for 16 h and then injected over a high-density (20000 RU) SPR surface with the TGF-β monoclonal antibody 1D11. Data is presented in terms of the initial slope (which is directly proportional to the concentration of the free TGF-β3 concentration) as a function of the competitor (R, EU, or REU) concentration. Two independent measurements were performed for each of the receptor constructs studied (designated by −a and −b in the legend).
The initial slope of these sensorgrams, which is a linear function of the free TGF-β3 concentration, was then plotted as a function of the concentration of RII, RIII (EU), or RII-RIII (REU) (FIG. 6).

[3] = target: T1, TGF-β2 K25R I92V K94R (TGF-β2TM); experiment: SPR, receptor injected over immobilized TGF-β2TM
Experimental: as §1
The TGF-β type III receptor binds TGF-β dimers with 1:1 stoichiometry. This was shown by comparing the maximal mass-normalized SPR response as increasing concentrations of the purified TGF-β type II receptor ectodomain (RII) and purified TGF-β type III receptor ectodomain (RIII) were injected over immobilized TGF-β2 K25R I92V K94R (TGF-β2TM), a variant of TGF-β2 that binds RII with high affinity (Baardsnes et al, 2009, Biochemistry, 48, 2146-2155; De Crescenzo et al, 2006, J Mol Biol, 355, 47-62).

Row | fold reduction of the maximal mass normalized binding response in the presence of 80 nM RIII [2] [fold] | decrease of EC50 relative to RII or RIII (EU) (TGF-β3) | maximal mass-normalized response relative to that of RII [3] | Binder | amount in the isolated RII:RIII:TGF-β2TM complex [1] [pmol]
1 | 2 | – | – | purified TGF-β type II receptor ectodomain (RII) (receptor) NGAVKFPQLCKFCDVRFSTCDNQKSCMSNCSITSICEKPQEVCVAVWRKNDENITLETVCHDPKLPYHDFILEDAASPKCIMKEKKKPGETFFMCSCSSDECNDNIIFSEEYNTSNPD | 61.8
2 | – | ≥ 0.5 log units and ~3 fold | – | RII-RIII (REU) fusion (other) AAANGAVKFPQLCKFCDVRFSTCDNQKSCMSNCSITSICEKPQEVCVAVWRKNDENITLETVCHDPKLPYHDFILEDAASPKCIMKEKKKPGETFFMCSCSSDECNDNIIFSEEYNTSNPDGLGPVESSPGHGLDTAAACELSPINASHPVQALMESFTVLSGCASRGTTGLPREVHVLNLRSTDQGPGQRQREVTLHLNPIASVHTHHKPIVFLLNSPQPLVWHLKTERLAAGVPRLFLVSEGSVVQFPSGNFSLTAETEERNFPQENEHLLRWAQKEYGAVTSFTELKIARNIYIKVGEDQVFPPTCNIGKNFLSLNYLAEYLQPKAAEGCVLPSQPHEKEVHIIELITPSSNPYSAFQVDIIVDIRPAQEDPEVVKNLVLILKCKKSVNWVIKSFDVKGNLKVIAPNSIGFGKESERSMTMTKLVRDDIPSTQENLMKWALDNGYRPVTSYTMAPVANRFHLRLENNEEMRDEEVHTIPPELRILLDPDHPPALDNPLFPGEGSPNGGLPFPFPDIPRRGWKEGEDRIPRPKQPIVPSVQLLPDHREPEEVQGGVDIALSVKCDHEKMVVAVDKDSFQTNGYSGMELTLLDPSCKAKMNGTHFVLESPLNGCGTRHRRSTPDGVVYYNSIVVQAPSPGDSAGWPDGYEDLEAGDNGFPGDGDEGETAPLSRAGVVVFNCSLRQLRNPSGFQGQLDGNATFNMELYNTDLFLVPSPGVFSVAENEHVYVEVSVTKADQDLGFAIQTCFLSPYSNPDRMSDYTIIENICPKDDSVKFYSSKRVHFPIPHAEVDKKRFSFLFKSVFNTSLLFLHCELTLCSRKKGSLKLPRCVTPDDACTSLDATMIWTMMQNKKTFTKPLAVVLQVD | –
3 | – | – | ~0.5 fold (ratio to RII) | purified TGF-β type III receptor ectodomain (RIII) (receptor, EU was made in CHO Lec 3.2.8.1 cells and purified on NiNTA, which implies a His tag that is not explicitly stated for EU; also called EU; RIII (EU)) CELSPINASHPVQALMESFTVLSGCASRGTTGLPREVHVLNLRSTDQGPGQRQREVTLHLNPIASVHTHHKPIVFLLNSPQPLVWHLKTERLAAGVPRLFLVSEGSVVQFPSGNFSLTAETEERNFPQENEHLLRWAQKEYGAVTSFTELKIARNIYIKVGEDQVFPPTCNIGKNFLSLNYLAEYLQPKAAEGCVLPSQPHEKEVHIIELITPSSNPYSAFQVDIIVDIRPAQEDPEVVKNLVLILKCKKSVNWVIKSFDVKGNLKVIAPNSIGFGKESERSMTMTKLVRDDIPSTQENLMKWALDNGYRPVTSYTMAPVANRFHLRLENNEEMRDEEVHTIPPELRILLDPDHPPALDNPLFPGEGSPNGGLPFPFPDIPRRGWKEGEDRIPRPKQPIVPSVQLLPDHREPEEVQGGVDIALSVKCDHEKMVVAVDKDSFQTNGYSGMELTLLDPSCKAKMNGTHFVLESPLNGCGTRHRRSTPDGVVYYNSIVVQAPSPGDSAGWPDGYEDLEAGDNGFPGDGDEGETAPLSRAGVVVFNCSLRQLRNPSGFQGQLDGNATFNMELYNTDLFLVPSPGVFSVAENEHVYVEVSVTKADQDLGFAIQTCFLSPYSNPDRMSDYTIIENICPKDDSVKFYSSKRVHFPIPHAEVDKKRFSFLFKSVFNTSLLFLHCELTLCSRKKGSLKLPRCVTPDDACTSLDATMIWTMMQNKKTFTKPLAVVLQVD | 62.4
